Entries after “also recorded” stand apart in the source; their conditions may differ.
How the values were obtained:
[1] = test system: vascular injury-induced neointimal hyperplasia; assay: Murine restenosis model: photoactivated rose bengal vascular injury of the femoral artery, histomorphometric analysis; type: in vivo, C57B1/6 mice; settings: for Stenosis Index (Mean ± SE), neointima/media ratio in areas of maximum neointimal hyperplasia, 2 weeks: 2 weeks after injury, EGF-Gen or unconjugated EGF 0.1 mg/kg/dose twice daily for 14 days; for Effect on neointimal hyperplasia / neointima formation (in words): injured femoral arteries, EGF-Gen at less than 5% of the highest nontoxic dose
Description: Three to four week old C57 B1/6 male mice (Taconic, Germantown, N.Y.) were housed in micro-isolator cages on a 12-hour day/night cycle and kept for 2 weeks on the Paigen's cocoa butter diet of 15.8% fat, 1.25% cholesterol and 0.5% sodium cholate (Harlan Teklad, Madison, Wis., U.S.A.) to induce high plasma cholesterol levels similar to those of patients with lipid disorders.
Mice were injected with 300 microliters of a 3 mg/ml photoactivated rose bengal solution (Aldrich, Milwaukee, Wis.) in sterile PBS via the tail vein and anesthetized with ketamine/xylazine solution (100 mg ketamine/kg and 5 […]). Photoactivation of rose bengal using percutaneous irradiation with a green light source (300 Watt Xenon arced lamp equipped with a 550 nanometer broad band interference filter, Oriel Scientific, Stratford, Conn.) was performed on the shaved left leg by placing a 3.2 mm glass fiber optic light guide directly into the left femoral vein/artery for 10 minutes. The unirradiated right femoral artery served as an internal control.
Following irradiation the mice were treated for either 14 days or 28 days with intraperitoneal injections of (1) EGF-Gen conjugate or unconjugated EGF (modified EGF not conjugated to genistein) at a dose level of 0. I mg/kg/dose once in the morning and once in the evening; or (2) 2 mg/kg/dose of unconjugated genistein or derivatives of 6,7-dimethoxyquinizalone dissolved in 10% DMSO once per day; or (3) with PBS.
At the times indicated, the animals were euthanized with ketamine/xylazine and perfused with PBS followed by 4% phosphate buffered formalin. PBS and formalin were pumped through the left ventricle of the heart and allowed to exit through a 3 mm incision through the interior wall of the right ventricle. The brain, thymus, heart, lung, liver, pancreas, kidney, spleen, intestine, stomach, muscle, skin adrenal, and testes were collected for pathological evaluation. For histopathological studies, tissues were fixed in 10% neutral buffered formalin, dehydrated and embedded in paraffin by routine methods. Tissue blocks containing the femoral artery/vein were excised and post-fixed in 4% phosphate buffered formalin overnight and processed for hemotoxylin and eosin (H&E) or Masson's trichrome staining. Glass slides were affixed with 6 micron tissue sections and were stained with hematoxylin and eosin or Masson's trichrome. Serial sections were examined for areas of maximum neointimal hyperplasia for which the ratios of neointima/media (stenosis index) were determined. This was necessary to compensate for angular differences among specimens. A Pixera camera (Pixera Corp., Calif., USA) was used for image capture and the NIH image 1.61(Rasband et al., 1995, Microbeam Analysis Soc. J. 4:137-149) program was used for histo-morphometric analysis.
All numeric data are shown as mean±SEM. Statistical analysis between groups was performed by Mann-Whitney t-test or Fisher's exact test using Instat, GraphPad Software, San Diego, Calif. Cumulative percentage plots were analyzed using Wilcoxon statistics by Statview, Abacus Concepts, Inc., Berkeley, Calif.
Vascular injury was induced in C57B1/6 mice as described for Example 2. Following irradiation, the mice were treated for either 14 days or 28 days with intraperitoneal injections of (1) EGF-Gen or unconjugated EGF (modified EGF not conjugated to genistein) at a dose level of 0.1 mg/kg/dose, once in the morning and once in the evening. For 14 day treatment, this dose represents a cumulative total dose level of 2.8 mg/kg and 2% of the highest nontoxic cumulative dosed tested in toxicity studies (Uckun et al., 1998, Clinical Cancer Res 5:1125-1134). For 28 day treatment, this dose represents a cumulative total dose level of 5.6 mg/kg and 4% of the highest nontoxic cumulative dosed tested in toxicity studies. Control animals were injected with 2 mg/kg/dose of unconjugated genistein or derivatives of 6, 7-dimethoxyquinizalone dissolved in 10% DMSO once per day or with PBS. […]

breast cancer cells = settings: U.S. patent application Ser. No. 08/602,186; cited from earlier work
[2] = test system: vascular smooth muscle cells (VSMC); assay: Migration of VSMC through Matrigel matrix-coated Boyden chambers; type: cell-based; settings: for Effect on migration of VSMC (in words): EGF-gen 0.25, 0.5, 1 μg/ml or EGF 1 μg/ml, overnight
Description: Migration of VSMC through Matrigel™ matrix was performed as described above for Example 4.
FIGS. 7A-7E show the morphological features of migrated VSMC incubated with 0.25 μg/ml (FIG. 7B), 0.5 μg/ml (FIG. 7C), or 1 μg/ml (FIG. 7D) of EGF-gen or with 1 μg/ml EFG (FIG. 7E), overnight. The control (FIG. 7A) was untreated. The cells were then trypsinized and processed for the migration assay using Matrigel™ matrix-coated boyden chambers. Cells migrated through the matrigel and were counted and expressed as % of controls. FIG. 7F is a bar graph showing the dose dependent inhibition of migration by EGF-Gen.

B1: EGF-Gen: rhEGF linked via the photoreactive cross-linker Sulfo-SANPAH to genistein at its C7 hydroxyl group (conjugate, UniProt P01133 23-1207, looked up)
Pro-epidermal growth factor: PQHWSCPEGTLAGNGNSTCVGPAPFLIFSHGNSIFRIDTEGTNYEQLVVDAGVSVIMDFHYNEKRIYWVDLERQLLQRVFLNGSRQERVCNIEKNVSGMAINWINEEVIWSNQQEGIITVTDMKGNNSHILLSALKYPANVAVDPVERFIFWSSEVAGSLYRADLDGVGVKALLETSEKITAVSLDVLDKRLFWIQYNREGSNSLICSCDYDGGSVHISKHPTQHNLFAMSLFGDRIFYSTWKMKTIWIANKHTGKDMVRINLHSSFVPLGELKVVHPLAQPKAEDDTWEPEQKLCKLRKGNCSSTVCGQDLQSHLCMCAEGYALSRDRKYCEDVNECAFWNHGCTLGCKNTPGSYYCTCPVGFVLLPDGKRCHQLVSCPRNVSECSHDCVLTSEGPLCFCPEGSVLERDGKTCSGCSSPDNGGCSQLCVPLSPVSWECDCFPGYDLQLDEKSCAASGPQPFLLFANSQDIRHMHFDGTDYGTLLSQQMGMVYALDHDPVENKIYFAHTALKWIERANMDGSQRERLIEEGVDVPEGLAVDWIGRRFYWTDRGKSLIGRSDLNGKRSKIITKENISQPRGIAVHPMAKRLFWTDTGINPRIESSSLQGLGRLVIASSDLIWPSGITIDFLTDKLYWCDAKQSVIEMANLDGSKRRRLTQNDVGHPFAVAVFEDYVWFSDWAMPSVMRVNKRTGKDRVRLQGSMLKPSSLVVVHPLAKPGADPCLYQNGGCEHICKKRLGTAWCSCREGFMKASDGKTCLALDGHQLLAGGEVDLKNQVTPLDILSKTRVSEDNITESQHMLVAEIMVSDQDDCAPVGCSMYARCISEGEDATCQCLKGFAGDGKLCSDIDECEMGVPVCPPASSKCINTEGGYVCRCSEGYQGDGIHCLDIDECQLGEHSCGENASCTNTEGGYTCMCAGRLSEPGLICPDSTPPPHLREDDHHYSVRNSDSECPLSHDGYCLHDGVCMYIEALDKYACNCVVGYIGERCQYRDLKWWELRHAGHGQQQKVIVVAVCVVVLVMLLLLSLWGAHYYRTQKLLSKNPKNPYEESSRDVRSRRPADTEDGMSSCPQPWFVVIKEHQDLKNGGQPVAGEDGQAADGSMQPTSWRQEPQLCGMGTEQGCWIPVSSDKGSCPQVMERSFHMPSYGTQTLEGGVEKPHSLLSANPLWQQRALDPPHQMELTQ
modifications: Pro-epidermal growth factor genistein via Sulfo-SANPAH cross-linker
Which results are given for B1?
Stenosis Index (Mean ± SE), neointima/media ratio in areas of maximum neointimal hyperplasia, 2 weeks ([1]; i.p.): 0.0±0.0; Mice with neointimal hyperplasia detected, 2 weeks after vascular injury ([1]; i.p. 0.1 mg/kg/dose twice daily, 0.1 mg/kg): none of the 5; also recorded: none of the five; Stenosis Index (Mean ± SE), neointima/media ratio in areas of maximum neointimal hyperplasia, 4 weeks ([1]; 4 weeks after injury, i.p., EGF-Gen 0.1 mg/kg/dose twice daily for 28 days, Gen or quinazolines 2 mg/kg/dose once per day in 10% DMSO): 0.59±0.16; Mice with neointima detected, 4 weeks post injury ([1]; 4 weeks, i.p. 0.1 mg/kg/dose twice daily): all of the 24; Effect on neointimal hyperplasia / neointima formation (in words) [1]: significantly reduced the magnitude of neointimal hyperplasia; Effect on neointimal hyperplasia / neointima formation (in words) ([1]; listed as EGF-Genistein): suppressed migration of myofibroblasts into the mural thrombus and the formation of neointima; Potency of the conjugate relative to unconjugated Genistein (breast cancer cells): 1000 fold; Effect on migration of VSMC (in words) [2]: inhibited the migration of VSMC in a dose dependent fashion; Concentration giving complete cessation of in vitro migration of VSMC ([2]; overnight incubation, then Matrigel migration assay): 1 µg/mL

B2: EGF: unconjugated EGF (modified EGF not conjugated to genistein) (protein, UniProt P01133 23-1207, looked up)
Pro-epidermal growth factor: B1 Pro-epidermal growth factor
modifications: Pro-epidermal growth factor
For B2, which “Stenosis Index (Mean ± SE), neointima/media ratio in areas of maximum neointimal hyperplasia, 2 weeks” value ([1]; i.p.) is on record?
Its value is 0.63 ± 0.20.

What about the “Stenosis Index (Mean ± SE), neointima/media ratio in areas of maximum neointimal hyperplasia, 2 weeks” value ([1]; i.p., listed as unconjugated EGF) of the same molecule?
Its value is 0.63±0.20.

And the “Mice with neointimal hyperplasia detected, 2 weeks after vascular injury” value ([1]; i.p. 0.1 mg/kg/dose twice daily)?
The value was 6 of 8.

What about the “Effect on neointimal hyperplasia / neointima formation (in words)” value [1] of the same molecule?
The value was “ineffective”.

And the “Effect on migration of VSMC (in words)” value [2]?
The value was “significantly promoted the migration”.

From patent US6034053A, “EGF-isoflavone conjugates for the prevention of restenosis” (Wayne Hughes Institute, priority 1998, dated 2000)
